This note sets out measurements from article doi:10.1101/2021.08.21.457230.

This assay addresses T1, human SLC44A1 (human), Q8WWI5.
T1 chain: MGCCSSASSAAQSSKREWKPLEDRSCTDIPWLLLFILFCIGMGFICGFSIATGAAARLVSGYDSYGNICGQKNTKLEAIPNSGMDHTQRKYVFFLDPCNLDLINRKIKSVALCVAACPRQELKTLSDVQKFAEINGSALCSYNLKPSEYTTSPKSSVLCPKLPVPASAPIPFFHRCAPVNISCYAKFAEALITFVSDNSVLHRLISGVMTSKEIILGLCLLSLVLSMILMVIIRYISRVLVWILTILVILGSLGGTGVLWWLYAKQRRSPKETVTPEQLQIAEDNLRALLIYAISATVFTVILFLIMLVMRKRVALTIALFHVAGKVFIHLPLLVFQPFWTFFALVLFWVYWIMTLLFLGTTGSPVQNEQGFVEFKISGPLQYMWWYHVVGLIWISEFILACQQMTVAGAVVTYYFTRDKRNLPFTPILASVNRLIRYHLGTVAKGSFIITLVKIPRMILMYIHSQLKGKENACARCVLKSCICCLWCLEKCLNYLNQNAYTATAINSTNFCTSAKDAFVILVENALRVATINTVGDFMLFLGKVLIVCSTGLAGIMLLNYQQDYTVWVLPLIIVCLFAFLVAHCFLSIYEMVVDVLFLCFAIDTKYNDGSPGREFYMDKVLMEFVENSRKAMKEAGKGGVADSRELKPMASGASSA
The assay can be described thus: cryo-EM structure. The following applies: remark: other sources report otherwise.

Usually stoichiometry N stands for the number of molecules, sites or subunits per partner or assembly.

B1: human SLC44A1, Q8WWI5 1-657 (natural protein)
chain: T1 chain
In turn, B1 yielded a stoichiometry N of 2.
